Measured values: US20230381350A1 (PRECIRIX N V, published 2023)

T1: human FAP recombinant protein (human, UniProt Q12884 26-760)
T1 construct: The protein was biotinylated with sulfo-NHS-SS-biotin for bio-layer interferometry; also called extracellular domain of human FAP with N-terminal His6-tag
T1 sequence: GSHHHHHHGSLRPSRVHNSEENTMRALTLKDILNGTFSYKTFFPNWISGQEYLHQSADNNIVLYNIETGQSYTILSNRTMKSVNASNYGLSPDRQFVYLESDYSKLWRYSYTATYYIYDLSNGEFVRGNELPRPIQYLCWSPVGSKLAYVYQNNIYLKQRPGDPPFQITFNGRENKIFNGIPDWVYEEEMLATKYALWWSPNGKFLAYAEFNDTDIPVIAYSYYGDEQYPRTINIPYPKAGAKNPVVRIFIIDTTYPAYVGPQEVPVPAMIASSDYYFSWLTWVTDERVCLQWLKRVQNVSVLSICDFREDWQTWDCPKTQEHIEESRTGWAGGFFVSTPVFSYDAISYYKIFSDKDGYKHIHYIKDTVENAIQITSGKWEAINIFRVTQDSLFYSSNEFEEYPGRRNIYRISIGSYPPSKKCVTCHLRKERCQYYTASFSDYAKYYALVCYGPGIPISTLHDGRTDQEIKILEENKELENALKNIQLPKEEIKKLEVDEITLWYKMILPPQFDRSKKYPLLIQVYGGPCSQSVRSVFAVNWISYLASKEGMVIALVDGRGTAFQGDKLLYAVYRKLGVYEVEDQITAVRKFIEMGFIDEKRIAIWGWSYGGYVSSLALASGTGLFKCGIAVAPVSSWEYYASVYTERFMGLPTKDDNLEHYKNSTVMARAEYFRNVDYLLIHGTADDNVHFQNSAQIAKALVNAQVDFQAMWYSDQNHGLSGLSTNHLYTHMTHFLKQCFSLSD

T2: murine FAP expressed on cells (murine, UniProt P97321 1-761)
T2 construct: also called murine FAP cell surface protein
T2 sequence: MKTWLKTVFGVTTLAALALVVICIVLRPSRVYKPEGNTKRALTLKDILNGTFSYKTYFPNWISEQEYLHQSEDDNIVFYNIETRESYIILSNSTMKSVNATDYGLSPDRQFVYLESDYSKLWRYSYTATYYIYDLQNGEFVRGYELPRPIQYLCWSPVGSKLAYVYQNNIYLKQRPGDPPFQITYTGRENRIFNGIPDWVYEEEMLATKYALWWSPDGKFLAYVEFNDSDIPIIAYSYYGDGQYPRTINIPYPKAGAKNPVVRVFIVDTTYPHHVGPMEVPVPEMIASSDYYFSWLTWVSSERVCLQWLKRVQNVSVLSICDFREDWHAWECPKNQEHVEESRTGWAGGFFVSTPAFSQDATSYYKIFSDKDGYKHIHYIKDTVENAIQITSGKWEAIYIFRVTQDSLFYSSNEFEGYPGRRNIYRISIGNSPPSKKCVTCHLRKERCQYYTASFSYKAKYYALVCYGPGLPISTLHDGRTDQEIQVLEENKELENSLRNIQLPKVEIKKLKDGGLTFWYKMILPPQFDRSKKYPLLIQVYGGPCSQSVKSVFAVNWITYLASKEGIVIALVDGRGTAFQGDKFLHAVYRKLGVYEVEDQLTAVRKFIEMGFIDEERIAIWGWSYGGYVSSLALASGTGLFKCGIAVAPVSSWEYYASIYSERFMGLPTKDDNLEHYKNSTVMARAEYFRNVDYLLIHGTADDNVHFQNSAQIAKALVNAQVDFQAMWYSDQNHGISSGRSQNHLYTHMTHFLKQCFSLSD

T3: human FAP expressed on cells (human, UniProt Q12884 1-760)
T3 construct: also called human FAP cell surface protein; human FAP receptor
T3 sequence: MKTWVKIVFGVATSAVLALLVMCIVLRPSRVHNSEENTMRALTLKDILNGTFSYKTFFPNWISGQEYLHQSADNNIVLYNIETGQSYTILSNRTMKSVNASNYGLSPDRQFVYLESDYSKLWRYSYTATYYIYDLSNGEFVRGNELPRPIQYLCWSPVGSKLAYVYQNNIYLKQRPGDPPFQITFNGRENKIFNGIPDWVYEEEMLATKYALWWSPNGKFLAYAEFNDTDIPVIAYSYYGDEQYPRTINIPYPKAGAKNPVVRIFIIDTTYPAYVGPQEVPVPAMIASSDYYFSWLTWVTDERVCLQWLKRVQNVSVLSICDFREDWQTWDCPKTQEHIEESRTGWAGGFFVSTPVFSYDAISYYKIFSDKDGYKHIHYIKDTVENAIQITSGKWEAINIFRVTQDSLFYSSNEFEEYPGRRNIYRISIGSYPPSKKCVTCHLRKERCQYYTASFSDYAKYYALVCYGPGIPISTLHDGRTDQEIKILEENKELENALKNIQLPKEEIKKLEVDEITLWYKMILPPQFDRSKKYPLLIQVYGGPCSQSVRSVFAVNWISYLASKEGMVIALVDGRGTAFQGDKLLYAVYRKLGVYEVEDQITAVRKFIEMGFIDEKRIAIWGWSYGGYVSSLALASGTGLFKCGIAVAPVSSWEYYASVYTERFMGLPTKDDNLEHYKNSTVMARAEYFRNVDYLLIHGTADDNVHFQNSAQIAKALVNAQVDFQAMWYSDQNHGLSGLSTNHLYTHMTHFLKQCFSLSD


Assays:
[1] = molecular target: T4, human DPP IV recombinant protein (human, UniProt P27487 29-766); assay: ELISA, coated human DPP IV, HA-His6-tagged VHH extract, anti-HA detection
T4 construct: extracellular domain; Bought protein; also called Dipeptidyl amino-peptidase IV
T4 sequence (P27487 29-766): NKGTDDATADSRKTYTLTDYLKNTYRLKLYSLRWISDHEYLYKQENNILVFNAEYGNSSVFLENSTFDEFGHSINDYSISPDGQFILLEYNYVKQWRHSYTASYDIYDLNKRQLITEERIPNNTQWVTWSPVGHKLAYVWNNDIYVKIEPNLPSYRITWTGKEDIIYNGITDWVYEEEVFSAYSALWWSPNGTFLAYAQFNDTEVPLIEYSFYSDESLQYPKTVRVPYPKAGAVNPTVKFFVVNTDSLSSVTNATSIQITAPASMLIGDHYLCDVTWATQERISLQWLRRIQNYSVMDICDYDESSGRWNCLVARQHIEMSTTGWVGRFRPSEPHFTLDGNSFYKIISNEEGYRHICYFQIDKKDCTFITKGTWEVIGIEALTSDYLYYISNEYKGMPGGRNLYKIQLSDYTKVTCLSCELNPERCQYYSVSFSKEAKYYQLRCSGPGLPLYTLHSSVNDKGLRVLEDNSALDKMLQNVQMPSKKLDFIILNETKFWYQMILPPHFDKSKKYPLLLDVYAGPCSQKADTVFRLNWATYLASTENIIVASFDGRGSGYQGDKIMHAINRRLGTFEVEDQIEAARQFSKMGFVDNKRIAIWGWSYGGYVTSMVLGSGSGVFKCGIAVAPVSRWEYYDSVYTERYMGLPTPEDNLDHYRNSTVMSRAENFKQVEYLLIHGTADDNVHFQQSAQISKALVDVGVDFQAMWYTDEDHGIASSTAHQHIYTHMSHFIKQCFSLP
Method: (§1) The day before measurement, 0.1 μg recombinant protein at a concentration of 1 μg/mL in 100 mM NaHCO₃, pH 8.2 was coated in a 96-well ELISA plate (Nunc MaxiSorp). Per VHH clone also a blank coated well was foreseen (only buffer). The wells were overcoated with protein-free T20 (PBS) blocking buffer (Pierce). After washing with PBS, pH7.4, 0.05% Tween, VHH-containing bacterial freeze-thaw extract was added to every well. Binding of HA-His₆-tagged VHHs was detected by using mouse anti-HA.11 epitope tag (clone 16B12, Biolegend) as the primary Ab and goat anti-mouse IgG (whole molecule) alkaline phosphatase conjugate (Sigma-Aldrich) as the secondary Ab, with thorough washing with PBS, pH 7.4, 0.05% Tween in between. Signals were developed using phosphatase substrate (Sigma-Aldrich) in AP blot buffer (100 mM NaCl, 50 mM MgCl₂, 100 mM Tris, pH 9.5). The absorbance was determined at 405 nm using an absorbance microplate reader (Molecular Devices). Per clone the ratio was determined between the absorbance in the antigen-coated well versus the well without antigen.

[2] = molecular target: T1, human FAP recombinant protein; assay: ELISA, coated human FAP recombinant protein, HA-His6-tagged VHH extract, anti-HA detection
Method: as §1

[3] = molecular target: T4, human DPP IV recombinant protein; assay: ELISA on coated recombinant protein, VHH-containing bacterial extract, anti-HA detection, signal-to-background ratio
Method: as §1

[4] = molecular target: T2, murine FAP expressed on cells; assay: saturation binding of 99mTc-labelled VHH on murine FAP-expressing HEK-293 cells (mean ± SD, n = 3)
Method: (§2) Next, we describe the in vitro and in vivo human and murine FAP binding potential of different VHHs after radiolabelling with the diagnostic radioisotope ^99mTc. […] His₆-tagged human/murine FAP-targeting VHHs were radiolabelled with the diagnostic radioisotope ^99mTc, according to the radiochemical procedure described in Example 3.
(§3) Next, the different cell lines were incubated with serial dilutions with concentrations ranging from 0 to 300 nM of the different ^99mTc-labelled His₆-tagged VHHs. A 100-fold excess of the corresponding unlabeled VHH was added in parallel to saturate the human or murine FAP proteins on the cancer cell surface, to assess non-specific binding. The resulting EC50 values for each of the VHHs are depicted in Table 8. […] We confirmed that ^99mTc-labeled VHH B4 only binds murine FAP cell surface protein, while VHH B3 only binds human FAP cell surface molecules in vitro.

[5] = molecular target: T3, human FAP expressed on cells; assay: saturation binding of 99mTc-labelled VHH on human FAP-expressing HEK-293 cells (mean ± SD, n = 3)
Method: as §2, §3

[6] = molecular target: T3, human FAP expressed on cells; assay: saturation binding of 99mTc-labelled VHH on human FAP-expressing GM05389 cells (mean ± SD, n = 3)
Method: as §2, §3

[7] = molecular target: T3, human FAP expressed on cells; assay: saturation binding of 131I-SGMIB-labelled VHH on human FAP-transfected HEK-293 cells; HEK-293 cells
Method: (§4) In a first part, the in vitro behaviour was assessed by means of investigating their cellular binding and retention overtime. The binding potential of the resulting radioconjugates was assessed to confirm that this was not affected by the introduction of ¹³¹I-SGMIB into the amino acid sequence of the VHH. To this, human FAP-expressing GM05389 (His₆-tagged and untagged VHH B1) and human FAP-transfected HEK-293 cells (His₆-tagged and untagged VHH B1; His₆-tagged VHH B2) were incubated with serial dilutions with concentrations ranging from 0 to 33 nM of the different ¹³¹I-labelled VHHs. A 100-fold excess of the corresponding unlabeled VHH was added in parallel to saturate the human FAP receptors expressed on cancer cells, to assess non-specific binding.

[8] = molecular target: T2, murine FAP expressed on cells; assay: saturation binding of 99mTc-labelled VHH on murine FAP-expressing HEK-293 cells
Method: as §3

[9] = molecular target: T3, human FAP expressed on cells; assay: saturation binding of 131I-SGMIB-labelled VHH on human FAP-expressing GM05389 cells; GM05389 cells
Method: as §4

[10] = molecular target: T3, human FAP expressed on cells; assay: saturation binding of 99mTc-labelled VHH on human FAP-expressing GM05389 cells
Method: as §3

EC50 [4] [nM]	EC50 [5] [nM]	EC50 [6] [nM]	EC50 [7] [nM]	Binder	further results
–	–	–	–	HA-His6-tagged VHH B2 (VHH, also called B2 with HA-His6-tag) VHH: QVQLQESGGGLVQAGGSLRLSCAVSGSISSANSMGWYRQAPGKQRDVVAGLTTGGRSHYADSVKGRFTISRDNAKNTVYLQMNSLKAEDTAVYYCNLWPPVQGYWGQGTQVTVSS	signal-to-background ratio [1]: ~1; signal-to-background ratio [2]: > 25; binding result [3]: no binding
139	13	3.2	–	99mTc-labeled His6-tagged VHH B2 (VHH, [99mTc(H2O)3(CO)3] complexed at the His6-tag, also called 99mTc-B2) VHH: DVQLVESGGGLVQAGGSLRLSCAVSGSISSANSMGWYRQAPGKQRDVVAGLTTGGRSHYADSVKGRFTISRDNAKNTVYLQMNSLKAEDTAVYYCNLWPPVQGYWGQGTQVTVSS	–
–	–	–	3.8	131I-labeled His6-tagged VHH B2 (VHH, [131I]SGMIB conjugated to lysine side-chain amines, also called 131I-B2; His6-tagged B2) VHH: DVQLVESGGGLVQAGGSLRLSCAVSGSISSANSMGWYRQAPGKQRDVVAGLTTGGRSHYADSVKGRFTISRDNAKNTVYLQMNSLKAEDTAVYYCNLWPPVQGYWGQGTQVTVSS	–
–	2.4	2.7	–	99mTc-labeled His6-tagged VHH B3 (VHH, [99mTc(H2O)3(CO)3] complexed at the His6-tag, also called 99mTc-B3) VHH: DVQLVESGGGLVQAGGSLRLSCAVSGRLFSTNAMGWYRQAPGKQRELVAGITGGDRSNYADSVKGRFTISRDNGKNTLYLQMNSLKPEDTAVYYCNFYPPIVGDYWGQGTQVTVSS	binding result [8]: no binding (tested: 0 to 300 nM)
–	–	–	–	HA-His6-tagged VHH B1 (VHH, Used as bacterial freeze-thaw extract in ELISA and flow cytometry, and at 1 µM in the enzyme assay; also called B1 with HA-His6-tag) VHH: QVQLQESGGGLVQPGGSLRLSCVASGRLSSSNSMAWYRQVPGKRRELVAGITGGGETNYADFVGGRFTISRDNAKNGLYLQLNGLKPEDTAAYYCNFWPPLINYWGQGTQVTVSS	signal-to-background ratio [1]: ~1; signal-to-background ratio [2]: > 25; binding result [3]: no binding
5.8	0.6	0.5	–	99mTc-labeled His6-tagged VHH B1 (VHH, [99mTc(H2O)3(CO)3] complexed at the His6-tag, also called 99mTc-B1) VHH: DVQLVESGGGLVQPGGSLRLSCVASGRLSSSNSMAWYRQVPGKRRELVAGITGGGETNYADFVGGRFTISRDNAKNGLYLQLNGLKPEDTAAYYCNFWPPLINYWGQGTQVTVSS	–
–	–	–	1.4	131I-labeled His6-tagged VHH B1 (VHH, [131I]SGMIB conjugated to lysine side-chain amines, also called 131I-B1; His6-tagged B1) VHH: DVQLVESGGGLVQPGGSLRLSCVASGRLSSSNSMAWYRQVPGKRRELVAGITGGGETNYADFVGGRFTISRDNAKNGLYLQLNGLKPEDTAAYYCNFWPPLINYWGQGTQVTVSS	EC50 [9]: 0.6 nM
–	–	–	2.8	131I-labeled untagged VHH B1 (VHH, [131I]SGMIB conjugated to lysine side-chain amines, also called untagged B1; [131I]SGMIB-VHH) VHH: DVQLVESGGGLVQPGGSLRLSCVASGRLSSSNSMAWYRQVPGKRRELVAGITGGGETNYADFVGGRFTISRDNAKNGLYLQLNGLKPEDTAAYYCNFWPPLINYWGQGTQVTVSS	EC50 [9]: 2.7 nM
7.6	–	–	–	99mTc-labeled His6-tagged VHH B4 (VHH, [99mTc(H2O)3(CO)3] complexed at the His6-tag, also called 99mTc-B4) VHH: DVQLVESGGGLVQVGGSLRLSCVASGFTFSSYYMSWVRQAPGKGLEWVASIYADGDMTYYADSVRGRFTISRDNAKNTLYLQMNSLKSEDTAVYYCAKDPLPPYHVNQGTQVTVSS	binding result [10]: no binding (tested: 0 to 300 nM)
–	–	–	–	99mTc-labeled non-targeting control VHH R3B23 (VHH, 99mTc label (labelling is described at the His6-tag), also called 99mTc-R3B23) VHH: QVQLQESGGGSVQAGGSLRLSCAASGDTGYMGWFRQAPGKEREGVAVINSDSGVGSTYYADSVKGRFTISRDNAKNTVYLQMNSLKPEDTAIYYCAAGHFSDYVSPWTWREIYRYNVWGQGTQVTVSS	binding result [8]: no binding (tested: 0 to 300 nM); binding result [10]: no binding (tested: 0 to 300 nM)
